Measured values as given in IntAct's records for PubMed 31515488.

B1: Zinc finger protein Aiolos (Homo sapiens), Q9UKT9-1 (parent)
chain: MEDIQTNAELKSTQEQSVPAESAAVLNDYSLTKSHEMENVDSGEGPANEDEDIGDDSMKVKDEYSERDENVLKSEPMGNAEEPEIPYSYSREYNEYENIKLERHVVSFDSSRPTSGKMNCDVCGLSCISFNVLMVHKRSHTGERPFQCNQCGASFTQKGNLLRHIKLHTGEKPFKCHLCNYACQRRDALTGHLRTHSVEKPYKCEFCGRSYKQRSSLEEHKERCRTFLQSTDPGDTASAEARHIKAEMGSERALVLDRLASNVAKRKSSMPQKFIGEKRHCFDVNYNSSYMYEKESELIQTRMMDQAINNAISYLGAEALRPLVQTPPAPTSEMVPVISSMYPIALTRAEMSNGAPQELEKKSIHLPEKSVPSERGLSPNNSGHDSTDTDSNHEERQNHIYQQNHMVLSRARNGMPLLKEVPRSYELLKPPPICPRDSVKVINKEGEVMDVYRCDHCRVLFLDYVMFTIHMGCHGFRDPFECNMCGYRSHDRYEFSSHIARGEHRALLK
B2: Growth arrest and DNA damage-inducible protein GADD45 gamma (Homo sapiens), O95257 (parent)
chain: MTLEEVRGQDTVPESTARMQGAGKALHELLLSAQRQGCLTAGVYESAKVLNVDPDNVTFCVLAAGEEDEGDIALQIHFTLIQAFCCENDIDIVRVGDVQRLAAIVGAGEEAGAPGDLHCILISNPNEDAWKDPALEKLSLFCEESRSVNDWVPSITLPE
B3: "tRNA (guanine-N(7)-)-methyltransferase non-catalytic subunit WDR4" (Homo sapiens), P57081 (parent)
chain: MAGSVGLALCGQTLVVRGGSRFLATSIASSDDDSLFIYDCSAAEKKSQENKGEDAPLDQGSGAILASTFSKSGSYFALTDDSKRLILFRTKPWQCLSVRTVARRCTALTFIASEEKVLVADKSGDVYSFSVLEPHGCGRLELGHLSMLLDVAVSPDDRFILTADRDEKIRVSWAAAPHSIESFCLGHTEFVSRISVVPTQPGLLLSSSGDGTLRLWEYRSGRQLHCCHLASLQELVDPQAPQKFAASRIAFWCQENCVALLCDGTPVVYIFQLDARRQQLVYRQQLAFQHQVWDVAFEETQGLWVLQDCQEAPLVLYRPVGDQWQSVPESTVLKKVSGVLRGNWAMLEGSAGADASFSSLYKATFDNVTSYLKKKEERLQQQLEKKQRRRSPPPGPDGHAKKMRPGEATLSC
partner: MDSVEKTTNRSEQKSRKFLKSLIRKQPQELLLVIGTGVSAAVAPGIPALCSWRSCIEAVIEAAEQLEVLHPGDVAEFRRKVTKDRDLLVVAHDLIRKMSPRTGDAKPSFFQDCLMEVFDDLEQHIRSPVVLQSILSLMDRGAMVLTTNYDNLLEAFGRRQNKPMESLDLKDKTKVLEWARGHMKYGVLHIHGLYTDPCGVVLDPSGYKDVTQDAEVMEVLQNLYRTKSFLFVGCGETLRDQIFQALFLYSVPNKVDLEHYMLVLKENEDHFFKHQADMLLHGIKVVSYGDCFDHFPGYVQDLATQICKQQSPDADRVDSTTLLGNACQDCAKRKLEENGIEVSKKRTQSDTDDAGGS
B4: Isoform 1 of Nucleoporin p54 (Homo sapiens), Q7Z3B4-1 (parent)
chain: MAFNFGAPSGTSGTAAATAAPAGGFGGFGTTSTTAGSAFSFSAPTNTGTTGLFGGTQNKGFGFGTGFGTTTGTSTGLGTGLGTGLGFGGFNTQQQQQTTLGGLFSQPTQAPTQSNQLINTASALSAPTLLGDERDAILAKWNQLQAFWGTGKGYFNNNIPPVEFTQENPFCRFKAVGYSCMPSNKDEDGLVVLVFNKKETEIRSQQQQLVESLHKVLGGNQTLTVNVEGTKTLPDDQTEVVIYVVERSPNGTSRRVPATTLYAHFEQANIKTQLQQLGVTLSMTRTELSPAQIKQLLQNPPAGVDPIIWEQAKVDNPDSEKLIPVPMVGFKELLRRLKVQDQMTKQHQTRLDIISEDISELQKNQTTSVAKIAQYKRKLMDLSHRTLQVLIKQEIQRKSGYAIQADEEQLRVQLDTIQGELNAPTQFKGRLNELMSQIRMQNHFGAVRSEERYYIDADLLREIKQHLKQQQEGLSHLISIIKDDLEDIKLVEHGLNETIHIRGGVFS

Variants of: B1
Conditions: with aakb2_human PRKAB2, O43741
aakb2_human PRKAB2, O43741, sequence (O43741 whole entry): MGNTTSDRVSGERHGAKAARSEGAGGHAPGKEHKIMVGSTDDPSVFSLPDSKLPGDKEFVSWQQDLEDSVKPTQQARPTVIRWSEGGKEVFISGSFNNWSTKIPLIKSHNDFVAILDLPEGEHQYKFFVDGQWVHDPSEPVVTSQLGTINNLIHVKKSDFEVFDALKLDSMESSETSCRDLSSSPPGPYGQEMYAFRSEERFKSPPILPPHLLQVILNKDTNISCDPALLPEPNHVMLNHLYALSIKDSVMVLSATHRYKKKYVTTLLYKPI

Variant | effect of a mutation on the interaction
I338M | with no effect

Variants of: B1
Conditions: with pfd5_human PFDN5, Q99471
pfd5_human PFDN5, Q99471, sequence (Q99471 whole entry): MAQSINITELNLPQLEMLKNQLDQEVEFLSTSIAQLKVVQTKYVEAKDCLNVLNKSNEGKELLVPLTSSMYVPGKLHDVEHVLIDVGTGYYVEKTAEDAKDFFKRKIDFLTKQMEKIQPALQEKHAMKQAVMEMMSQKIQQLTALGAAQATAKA

Variant | effect of a mutation on the interaction
I338M | with no effect

Variants of: B1
Conditions: with p85b_human PIK3R2, O00459
p85b_human PIK3R2, O00459, sequence (O00459 whole entry): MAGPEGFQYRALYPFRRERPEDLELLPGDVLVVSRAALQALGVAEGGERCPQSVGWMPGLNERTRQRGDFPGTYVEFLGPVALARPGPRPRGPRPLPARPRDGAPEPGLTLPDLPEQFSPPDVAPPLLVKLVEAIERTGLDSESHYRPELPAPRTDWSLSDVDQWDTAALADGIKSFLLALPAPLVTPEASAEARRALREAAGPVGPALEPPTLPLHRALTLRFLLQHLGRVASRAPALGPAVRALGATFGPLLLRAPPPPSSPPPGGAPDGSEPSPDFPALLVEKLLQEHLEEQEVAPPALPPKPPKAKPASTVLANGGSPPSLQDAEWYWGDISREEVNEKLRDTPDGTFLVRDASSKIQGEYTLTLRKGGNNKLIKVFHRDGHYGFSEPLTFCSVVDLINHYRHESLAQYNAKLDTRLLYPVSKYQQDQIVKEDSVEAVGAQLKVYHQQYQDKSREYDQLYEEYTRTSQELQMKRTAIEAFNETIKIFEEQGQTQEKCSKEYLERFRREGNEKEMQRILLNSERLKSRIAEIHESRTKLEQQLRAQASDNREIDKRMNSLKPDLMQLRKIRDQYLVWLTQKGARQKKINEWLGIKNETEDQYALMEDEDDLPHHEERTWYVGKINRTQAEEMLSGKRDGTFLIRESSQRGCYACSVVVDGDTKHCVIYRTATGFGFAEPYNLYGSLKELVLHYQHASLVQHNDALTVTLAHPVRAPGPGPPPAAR

Variant | effect of a mutation on the interaction
I338M | with no effect

Variants of: B1
Conditions: with aakb2_human PRKAB2, O43741
Remark: another data set of the same source

Variant | effect of a mutation on the interaction
N119D | with no effect
A24V | with no effect

Variants of: B1
Conditions: with exoc8_human EXOC8, Q8IYI6
exoc8_human EXOC8, Q8IYI6, sequence (Q8IYI6 whole entry): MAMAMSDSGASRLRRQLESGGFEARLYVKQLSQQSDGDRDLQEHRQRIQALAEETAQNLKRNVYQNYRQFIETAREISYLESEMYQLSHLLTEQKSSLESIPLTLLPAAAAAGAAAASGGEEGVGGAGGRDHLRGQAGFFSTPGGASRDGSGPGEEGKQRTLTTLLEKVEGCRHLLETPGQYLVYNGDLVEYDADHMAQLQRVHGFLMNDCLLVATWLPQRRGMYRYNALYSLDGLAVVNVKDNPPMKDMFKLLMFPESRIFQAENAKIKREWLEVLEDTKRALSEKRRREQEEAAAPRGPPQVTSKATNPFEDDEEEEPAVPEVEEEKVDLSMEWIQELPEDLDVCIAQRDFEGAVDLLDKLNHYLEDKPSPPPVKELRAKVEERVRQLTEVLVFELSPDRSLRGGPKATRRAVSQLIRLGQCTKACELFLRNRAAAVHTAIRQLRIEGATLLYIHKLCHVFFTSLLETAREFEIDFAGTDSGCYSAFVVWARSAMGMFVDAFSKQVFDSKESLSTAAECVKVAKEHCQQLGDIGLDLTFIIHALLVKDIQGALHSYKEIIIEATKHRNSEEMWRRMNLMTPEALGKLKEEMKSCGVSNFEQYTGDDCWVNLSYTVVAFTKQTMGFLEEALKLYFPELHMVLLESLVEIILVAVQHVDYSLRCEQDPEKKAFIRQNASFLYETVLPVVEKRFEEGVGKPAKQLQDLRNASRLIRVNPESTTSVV

Variant | effect of a mutation on the interaction
N119D | with no effect
A24V | with no effect

Variants of: B1
Conditions: with tb22b_human TBC1D22B

Variant | effect of a mutation on the interaction
N119D | with no effect
A24V | with no effect

Variants of: B1
Conditions: with p85b_human PIK3R2, O00459
Remark: another data set of the same source

Variant | effect of a mutation on the interaction
N119D | disrupting interaction strength
A24V | with no effect

Variants of: B1
Conditions: with rpac1_human POLR1C

Variant | effect of a mutation on the interaction
N119D | with no effect
A24V | with no effect

Variants of: B1
Conditions: with pfd5_human PFDN5, Q99471
Remark: another data set of the same source

Variant | effect of a mutation on the interaction
N119D | with no effect
A24V | with no effect

Variants of: B1
Conditions: with nek6_human NEK6, Q9HC98
nek6_human NEK6, Q9HC98, sequence (Q9HC98 whole entry): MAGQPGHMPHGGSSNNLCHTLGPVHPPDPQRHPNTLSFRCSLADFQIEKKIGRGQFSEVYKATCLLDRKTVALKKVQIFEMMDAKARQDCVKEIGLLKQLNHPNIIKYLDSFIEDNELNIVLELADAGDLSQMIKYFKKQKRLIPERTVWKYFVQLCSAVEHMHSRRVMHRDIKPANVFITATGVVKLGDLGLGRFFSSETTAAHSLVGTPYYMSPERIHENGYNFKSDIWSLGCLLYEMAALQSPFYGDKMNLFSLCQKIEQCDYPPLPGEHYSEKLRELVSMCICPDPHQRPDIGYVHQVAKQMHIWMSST

Variant | effect of a mutation on the interaction
N119D | with no effect
A24V | with no effect

Variants of: B1
Conditions: with exos5_human EXOSC5, Q9NQT4
exos5_human EXOSC5, Q9NQT4, sequence (Q9NQT4 whole entry): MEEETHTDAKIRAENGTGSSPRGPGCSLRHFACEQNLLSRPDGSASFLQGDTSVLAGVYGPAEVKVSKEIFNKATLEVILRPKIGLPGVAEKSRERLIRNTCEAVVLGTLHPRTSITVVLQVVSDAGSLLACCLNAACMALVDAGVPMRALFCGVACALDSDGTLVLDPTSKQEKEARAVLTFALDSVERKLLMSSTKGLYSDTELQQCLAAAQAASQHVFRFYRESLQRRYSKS

Variant | effect of a mutation on the interaction
N119D | with no effect
A24V | with no effect

Variants of: B1
Conditions: with tstd2_human TSTD2, Q5T7W7
tstd2_human TSTD2, Q5T7W7, sequence (Q5T7W7 whole entry): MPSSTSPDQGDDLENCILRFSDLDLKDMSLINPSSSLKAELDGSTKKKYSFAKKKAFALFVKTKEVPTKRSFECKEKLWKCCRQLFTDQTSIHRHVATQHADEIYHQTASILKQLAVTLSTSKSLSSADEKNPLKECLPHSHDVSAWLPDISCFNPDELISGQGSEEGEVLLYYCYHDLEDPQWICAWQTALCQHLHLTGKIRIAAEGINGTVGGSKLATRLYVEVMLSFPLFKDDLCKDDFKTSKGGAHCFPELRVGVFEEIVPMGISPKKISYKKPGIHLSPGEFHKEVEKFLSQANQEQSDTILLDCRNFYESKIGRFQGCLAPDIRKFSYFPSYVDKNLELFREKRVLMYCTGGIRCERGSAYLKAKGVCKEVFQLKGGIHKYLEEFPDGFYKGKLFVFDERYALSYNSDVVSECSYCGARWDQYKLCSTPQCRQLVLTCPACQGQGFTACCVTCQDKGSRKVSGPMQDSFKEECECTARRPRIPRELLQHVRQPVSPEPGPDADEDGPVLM

Variant | effect of a mutation on the interaction
N119D | with no effect
A24V | with no effect

Variants of: B2
Conditions: with af1l1_human AFAP1L1, Q8TED9
af1l1_human AFAP1L1, Q8TED9, sequence (Q8TED9 whole entry): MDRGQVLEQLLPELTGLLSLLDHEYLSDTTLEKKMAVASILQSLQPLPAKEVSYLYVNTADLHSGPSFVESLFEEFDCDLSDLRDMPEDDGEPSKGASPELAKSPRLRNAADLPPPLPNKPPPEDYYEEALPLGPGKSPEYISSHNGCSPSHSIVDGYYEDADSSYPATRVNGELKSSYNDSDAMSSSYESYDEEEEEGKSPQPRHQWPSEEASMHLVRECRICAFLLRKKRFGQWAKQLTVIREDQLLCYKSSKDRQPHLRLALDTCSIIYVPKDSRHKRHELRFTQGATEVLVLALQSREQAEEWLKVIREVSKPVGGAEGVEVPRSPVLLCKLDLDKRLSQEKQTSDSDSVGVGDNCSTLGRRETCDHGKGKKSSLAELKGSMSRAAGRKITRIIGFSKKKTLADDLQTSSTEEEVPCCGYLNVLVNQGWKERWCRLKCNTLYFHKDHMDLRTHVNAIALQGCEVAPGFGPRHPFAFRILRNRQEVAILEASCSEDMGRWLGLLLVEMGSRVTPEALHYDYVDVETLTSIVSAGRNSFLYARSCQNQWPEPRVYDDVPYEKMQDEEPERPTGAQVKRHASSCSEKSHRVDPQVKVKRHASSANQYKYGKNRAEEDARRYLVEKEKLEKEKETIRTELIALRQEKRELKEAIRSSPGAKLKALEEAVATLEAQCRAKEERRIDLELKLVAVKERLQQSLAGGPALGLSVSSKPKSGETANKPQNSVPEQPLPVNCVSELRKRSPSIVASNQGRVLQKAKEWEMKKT

Variant | effect of a mutation on the interaction
G112S | with no effect

Variants of: B2
Conditions: with rwd2b_human RWDD2B

Variant | effect of a mutation on the interaction
G112S | disrupting interaction strength

Variants of: B3
Conditions: with FAM118A

Variant | effect of a mutation on the interaction
A275T | with no effect

Variants of: B4
Conditions: with nup58_human NUP58, Q9BVL2
nup58_human NUP58, Q9BVL2, sequence (Q9BVL2 whole entry): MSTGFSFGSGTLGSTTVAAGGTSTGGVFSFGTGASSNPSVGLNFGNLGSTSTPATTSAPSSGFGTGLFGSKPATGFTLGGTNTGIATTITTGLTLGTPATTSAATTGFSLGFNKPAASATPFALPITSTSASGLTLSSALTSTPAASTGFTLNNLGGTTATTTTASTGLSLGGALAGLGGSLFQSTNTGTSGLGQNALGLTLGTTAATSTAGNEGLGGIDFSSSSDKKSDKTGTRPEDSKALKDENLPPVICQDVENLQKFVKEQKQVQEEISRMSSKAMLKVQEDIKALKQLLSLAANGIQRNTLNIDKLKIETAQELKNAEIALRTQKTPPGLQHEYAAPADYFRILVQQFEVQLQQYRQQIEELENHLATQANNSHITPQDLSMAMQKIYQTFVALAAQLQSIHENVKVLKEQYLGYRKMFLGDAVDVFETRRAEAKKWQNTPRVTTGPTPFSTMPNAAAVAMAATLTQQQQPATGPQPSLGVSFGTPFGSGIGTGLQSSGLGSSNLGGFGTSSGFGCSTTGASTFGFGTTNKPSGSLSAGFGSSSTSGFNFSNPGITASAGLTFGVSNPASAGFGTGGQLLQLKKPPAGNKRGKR

Variant | effect of a mutation on the interaction
T416A | with no effect

Variants of: B4
Conditions: with hgs_human HGS

Variant | effect of a mutation on the interaction
T416A | with no effect

Variants of: B4
Conditions: with nup62_human NUP62, P37198

Variant | effect of a mutation on the interaction
T416A | with no effect

Variants of: B4
Conditions: with KRT15, P19012
KRT15, P19012, sequence (P19012 whole entry): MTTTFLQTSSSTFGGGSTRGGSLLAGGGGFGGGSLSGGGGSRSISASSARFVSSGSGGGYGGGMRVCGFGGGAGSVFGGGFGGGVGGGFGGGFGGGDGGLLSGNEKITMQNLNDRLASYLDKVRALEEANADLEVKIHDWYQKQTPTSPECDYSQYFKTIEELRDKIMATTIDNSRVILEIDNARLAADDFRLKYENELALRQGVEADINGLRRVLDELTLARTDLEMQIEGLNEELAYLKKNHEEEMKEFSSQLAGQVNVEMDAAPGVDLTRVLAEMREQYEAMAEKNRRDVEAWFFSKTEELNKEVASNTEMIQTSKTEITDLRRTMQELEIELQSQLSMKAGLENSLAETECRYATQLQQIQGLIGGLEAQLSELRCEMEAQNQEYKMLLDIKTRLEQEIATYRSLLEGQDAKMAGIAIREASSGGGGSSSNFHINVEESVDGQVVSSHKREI

Variant | effect of a mutation on the interaction
T416A | with no effect
